Reference: US20090029392

System: T1, Biotin-GDEVDGC biotinylated peptide substrate for caspase-3, coupled to aminated CLIO
T1 sequence: GDEVDGC

Caspase 3
T2 relaxation time (dispersal of the aggregate after cleavage of the peptide): When the inhibitor is not added or capase is added, the aggregate is dispersed resulting in an increase of T2
